Reference: publication PMC5074521, “Dom34 Links Translation to Protein O-mannosylation”

B1: PMT1 5'-UTR RNA oligonucleotide (ssRNA)
RNA: ACAACAACAACAACAACCACCACAACCACAACUAUAAACAAU
B2: PMT1 5'-UTR RNA (full) (structured_RNA)
RNA: GGCAAGAUUCUUUUUCAAGAUUUUUCAUUUUUACAACAACAACAACAACCACCACAACCACAACUAUAAACAAUUGAUAUAGCAUUAUCUUUUAAGAUUAUUGAAUAAAGGUCAAUUUAUAGCGCCCCCCCUCACUCCACCUCCUACCGUCUUUCUUUCACGCAACUAAAACAAAUUUUUAUAUUUUUAUUUUUAUUUUUAUUUUAGUUUCCCAUUCAAUAGAUC

How the values were obtained:
Dom34 E21A [1] = biological target: T1, Dom34 E21A (Candida albicans, UniProt A0A1D8PSD0 1-393, E21A); test: EMSA; 400 nM protein, 20 nM RNA; enhanced vs wild type; UTR/6S EMSA: 10 mM Tris-HCl pH 8.0, 100 mM NaCl, 30 C 10 min, then heparin 50 ng/ul 10 min, native 5% PAGE (legend 6%); oligo EMSA: LightShift RNA EMSA kit, room temperature 20 min; footprint: RNase 1 min at 37 C; conditions: protein: recombinant; tags: C-terminal His6; label: 3'-biotin; single strand
Dom34 [2] = biological target: T2, Dom34 (Candida albicans, UniProt A0A1D8PSD0 1-393); test: EMSA; 400 nM protein, 20 nM RNA; complex I, plus II with 0.05% lauryl sarcosinate; UTR/6S EMSA: 10 mM Tris-HCl pH 8.0, 100 mM NaCl, 30 C 10 min, then heparin 50 ng/ul 10 min, native 5% PAGE (legend 6%); oligo EMSA: LightShift RNA EMSA kit, room temperature 20 min; footprint: RNase 1 min at 37 C; conditions: protein: recombinant; tags: C-terminal His6; label: 3'-biotin; single strand
Dom34 N317A = Dom34 N317A (Candida albicans, UniProt A0A1D8PSD0 1-393, N317A); test: EMSA; 400 nM protein, 20 nM RNA; as wild type; UTR/6S EMSA: 10 mM Tris-HCl pH 8.0, 100 mM NaCl, 30 C 10 min, then heparin 50 ng/ul 10 min, native 5% PAGE (legend 6%); oligo EMSA: LightShift RNA EMSA kit, room temperature 20 min; footprint: RNase 1 min at 37 C; conditions: protein: recombinant; tags: C-terminal His6; label: 3'-biotin; single strand
Dom34 [3] = biological target: T2, Dom34; test: EMSA; heparin challenge; binding visible above 0.3 uM, no free RNA at 2.5 uM (bound or degraded); lower affinity than E21A; UTR/6S EMSA: 10 mM Tris-HCl pH 8.0, 100 mM NaCl, 30 C 10 min, then heparin 50 ng/ul 10 min, native 5% PAGE (legend 6%); oligo EMSA: LightShift RNA EMSA kit, room temperature 20 min; footprint: RNase 1 min at 37 C; conditions: protein: recombinant; tags: C-terminal His6; label: 3'-32P-pCp; single strand with predicted paired regions
Dom34 E21A [4] = biological target: T1, Dom34 E21A; test: EMSA; heparin challenge 50 ng/ul; apparent KD; UTR/6S EMSA: 10 mM Tris-HCl pH 8.0, 100 mM NaCl, 30 C 10 min, then heparin 50 ng/ul 10 min, native 5% PAGE (legend 6%); oligo EMSA: LightShift RNA EMSA kit, room temperature 20 min; footprint: RNase 1 min at 37 C; conditions: protein: recombinant; tags: C-terminal His6; label: 3'-32P-pCp; single strand with predicted paired regions

Row | Binder | binding result (Dom34 E21A [1]) | binding result (Dom34 [2]) | binding result (Dom34 N317A) | binding result (Dom34 [3]) | Kd (Dom34 E21A [4])
1 | B1 | binds | binds | binds |  | 
2 | B2 |  |  |  | binds | ~100 nM
